# Results taken from the RNAGym collection of RNA variant scans (doi:10.7554/elife.80360).
# B1: CPEB3 Ribozyme (parent)
# chain: GGGGGCCACAGCAGAAGCGUUCACGUCGCGGCCCCUGUCAGAUUCUGGUGAAUCUGCGAAUUCUGCUGU
# Variants of: B1
# Experiment: self-cleavage, relative activity (ratio to wild type); higher = more cleavage; co-transcriptional
row,Variant,self-cleavage
1,GGGGGCCACAGCAGAAGCAUUCACGUCGCGGCCCCUGUCAGAUUCUGGUGUAUCUGCGAAUUCUGCUGU [G19A A51U],0.245
2,GGGGGCCACAGCAGAAGCAUUCACGUCGCGGCCCCUGUCAGAUUCUGGUGAAUCUGCGAAUUCUGGUGU [G19A C66G],0.146
3,GGGGGCCACAGCAGAAGCAUUCACGUCGCGGCCCCUGUCAGAUUCUGGUGAAUCUGCGAAUUCUGAUGU [G19A C66A],0.145
4,GGGGGCCACAGCAGAAGCAUUCACGUCGCGGCCCCUGUCAGAUUCUGGUGAAUCUGCGAAUUCUGUUGU [G19A C66U],0.162
5,GGGGGCCACAGCAGAAGCAUUCACGUCGCGGCCCCUGUCAGAUUGUGGUGAAUCUGCGAAUUCUGCUGU [G19A C45G],0.194
6,GGGGGCCACAGCAGAAGCAUUCACGUCGCGGCCCCUGUCAGAUGCUGGUGAAUCUGCGAAUUCUGCUGU [G19A U44G],0.158
7,GGGGGCCACAGCAGAAGCAUUCACGUCGCGGCCCCUGUCAGAUACUGGUGAAUCUGCGAAUUCUGCUGU [G19A U44A],0.172
8,GGGGGCCACAGCAGAAGCAUUCACGUCGCGGCCCCUGUCAGUUUCUGGUGAAUCUGCGAAUUCUGCUGU [G19A A42U],0.191
9,GGGGGCCACAGCAGAAGCAUUCACGUCGCGGCCCCUGUCAGAUUCUGGUGAAUAUGCGAAUUCUGCUGU [G19A C54A],0.163
10,GGGGGCCACAGCAGAAGCAUUCACGUCGCGGCCCCUGUCAGAUUCUGGUGAAUUUGCGAAUUCUGCUGU [G19A C54U],0.134
11,GGGGGCCACAGCAGAAGCAUUCACGUCGCGGCCCCUGUCAAAUUCUGGUGAAUCUGCGAAUUCUGCUGU [G19A G41A],0.153
12,GGGGGCCACAGCAGAAGCAUUCACGUCGCGGCCCCUGUCAUAUUCUGGUGAAUCUGCGAAUUCUGCUGU [G19A G41U],0.142
13,GGGGGCCACAGCAGAAGCAUUCACGUCGCGGCCCCUGUCACAUUCUGGUGAAUCUGCGAAUUCUGCUGU [G19A G41C],0.187
14,GGGGGCCACAGCAGAAGCAUUCACGUCGCGGCUCCUGUCAGAUUCUGGUGAAUCUGCGAAUUCUGCUGU [G19A C33U],0.13
15,GGGGGCCACAGCAGAAGCAUUCACGUCGCGGCACCUGUCAGAUUCUGGUGAAUCUGCGAAUUCUGCUGU [G19A C33A],0.126
16,GGGGGCCACAGCAGAAGCAUUCACGUCGCGGCCCCUGUCAGAUUCUGGUGAAUCUGCCAAUUCUGCUGU [G19A G58C],0.168
17,GGGGGCCACAGCAGAAGCAUUCACGUCGCGGCCCCUGUCAGAUUCUGGUGAAUCUGCUAAUUCUGCUGU [G19A G58U],0.194
18,GGGGGCCACAGCAGAAGCAUUCACGUCGCGGCCCCUGUCAGAUUCUGGUGAAUCUGCGGAUUCUGCUGU [G19A A59G],0.188
19,GGGGGCCACAGCAGAAGCAUUCACGUCGCGGCCCCUGUCAGAUUCUGGUGAAUCUGCGCAUUCUGCUGU [G19A A59C],0.194
20,GGGGGCCACAGCAGAAGCAUUCACGUCGCGGCCCCUGUCAGAUUCUGGUGAAUCUGCGAAUUGUGCUGU [G19A C63G],0.152
21,GGGGGCCACAGCAGAAGCAUUCACGUCGCGGCCCCUGUCAGAUUCUGGUGAAUCUGCGAAUUAUGCUGU [G19A C63A],0.0882
22,GGGGGCCACAGCAGAAGCAUUCACGUCCCGGCCCCUGUCAGAUUCUGGUGAAUCUGCGAAUUCUGCUGU [G19A G28C],0.216
23,GGGGGCCACAGCAGAAGCAUUCACGUCACGGCCCCUGUCAGAUUCUGGUGAAUCUGCGAAUUCUGCUGU [G19A G28A],0.152
24,GGGGGCCACAGCAGAAGCAUUCACGUCUCGGCCCCUGUCAGAUUCUGGUGAAUCUGCGAAUUCUGCUGU [G19A G28U],0.132
25,GGGGGCCACAGCAGAAGCAUUCACGUCGCGGCCCCUGACAGAUUCUGGUGAAUCUGCGAAUUCUGCUGU [G19A U38A],0.165
26,GGGGGCCACAGCAGAAGCAUUCACGUCGCGGCCCCUGCCAGAUUCUGGUGAAUCUGCGAAUUCUGCUGU [G19A U38C],0.16

row,Variant,self-cleavage
1,GGGGGCCACAGCAGAAGCAUUCACAUCGCGGCCCCUGUCAGAUUCUGGUGAAUCUGCGAAUUCUGCUGU [G19A G25A],0.0763
2,GGGGGCCACAGCAGAAGCAUUCACCUCGCGGCCCCUGUCAGAUUCUGGUGAAUCUGCGAAUUCUGCUGU [G19A G25C],0.151
3,GGGGGCCACAGCAGAAGCAUUCACUUCGCGGCCCCUGUCAGAUUCUGGUGAAUCUGCGAAUUCUGCUGU [G19A G25U],0.164
4,GGGGGCCACAGCAGAAGCAUUCACGUCGCGGCCCCUGUCAGAUUCUGGUCAAUCUGCGAAUUCUGCUGU [G19A G50C],0.204
5,GGGGGCCACAGCAGAAGCAUUCACGUCGCGGCCCCUGUCAGAUUCUGGUAAAUCUGCGAAUUCUGCUGU [G19A G50A],0.197
6,GGGGGCCACAGCAGAAGCAUUCACGUCGCGGCCCCUGUCAGAUUCUGGUGAAUCUGCGAAUUCUGCUUU [G19A G68U],0.232
7,GGGGGCCACAGCAGAAGCAUUCACGUCGCGGCCCCUGUCAGAUUCUGGUGAAUCUGCGACUUCUGCUGU [G19A A60C],0.0899
8,GGGGGCCACAGCAGAAGCAUUCACGUCGCGGCCCCUGUCAGAUUCUGGUGAAUCUGCGAUUUCUGCUGU [G19A A60U],0.0747
9,GGGGGCCACAGCAGAAGCAUUCACGUCGCGGCCCCUGUCAGAGUCUGGUGAAUCUGCGAAUUCUGCUGU [G19A U43G],0.245
10,GGGGGCCACAGCAGAAGCAUUCAAGUCGCGGCCCCUGUCAGAUUCUGGUGAAUCUGCGAAUUCUGCUGU [G19A C24A],0.124
11,GGGGGCCACAGCAGAAGCAUUCAGGUCGCGGCCCCUGUCAGAUUCUGGUGAAUCUGCGAAUUCUGCUGU [G19A C24G],0.159
12,GGGGGCCACAGCAGAAGCAUUCAUGUCGCGGCCCCUGUCAGAUUCUGGUGAAUCUGCGAAUUCUGCUGU [G19A C24U],0.16
13,GGGGGCCACAGCAGAAGCAUUCACGUCGCGGCCCCUGUCAGAUUCUGGUGAAUCUGUGAAUUCUGCUGU [G19A C57U],0.178
14,GGGGGCCACAGCAGAAGCAUUCACGUCGCGGCCCCUGUCAGAUUCUGGUGAAUCUGGGAAUUCUGCUGU [G19A C57G],0.137
15,GGGGGCCACAGCAGAAGCAUUCACGUCGCGGCCCCUGUCAGAUUCUGGUGAAUCUGAGAAUUCUGCUGU [G19A C57A],0.133
16,GGGGGCCACAGCAGAAGCAUUCACGUCGCGGCCCCUGUUAGAUUCUGGUGAAUCUGCGAAUUCUGCUGU [G19A C39U],0.158
17,GGGGGCCACAGCAGAAGCAUUCACGUCGCGGCCCCUGUAAGAUUCUGGUGAAUCUGCGAAUUCUGCUGU [G19A C39A],0.145
18,GGGGGCCACAGCAGAAGCAUUCACGUCGCGGCCCCUGUCCGAUUCUGGUGAAUCUGCGAAUUCUGCUGU [G19A A40C],0.123
19,GGGGGCCACAGCAGAAGCAUUCACGUCGCGGCCCCUGUCUGAUUCUGGUGAAUCUGCGAAUUCUGCUGU [G19A A40U],0.147
20,GGGGGCCACAGCAGAAGCAUUCACGUCGGGGCCCCUGUCAGAUUCUGGUGAAUCUGCGAAUUCUGCUGU [G19A C29G],0.153
21,GGGGGCCACAGCAGAAGCAUUCACGUCGUGGCCCCUGUCAGAUUCUGGUGAAUCUGCGAAUUCUGCUGU [G19A C29U],0.0995
22,GGGGGCCACAGCAGAAGCAUUCACGUCGCGGCCCGUGUCAGAUUCUGGUGAAUCUGCGAAUUCUGCUGU [G19A C35G],0.183
23,GGGGGCCACAGCAGAAGCAGUCACGUCGCGGCCCCUGUCAGAUUCUGGUGAAUCUGCGAAUUCUGCUGU [G19A U20G],0.111
24,GGGGGCCACAGCAGAAGCAUUCACGUCGCGGCCCCUUUCAGAUUCUGGUGAAUCUGCGAAUUCUGCUGU [G19A G37U],0.127
25,GGGGGCCACAGCAGAAGCAUUCACGUGGCGGCCCCUGUCAGAUUCUGGUGAAUCUGCGAAUUCUGCUGU [G19A C27G],0.656
26,GGGGGCCACAGCAGAAGCAUUCACGUUGCGGCCCCUGUCAGAUUCUGGUGAAUCUGCGAAUUCUGCUGU [G19A C27U],0.768

row,Variant,self-cleavage
1,GGGGGCCACAGCAGAAGCAUUCACGUAGCGGCCCCUGUCAGAUUCUGGUGAAUCUGCGAAUUCUGCUGU [G19A C27A],0.143
2,GGGGGCCACAGCAGAAGCAUUCACGUCGCGGCCCCUGUCAGAUUCUCGUGAAUCUGCGAAUUCUGCUGU [G19A G47C],0.25
3,GGGGGCCACAGCAGAAGCAUUCUCGUCGCGGCCCCUGUCAGAUUCUGGUGAAUCUGCGAAUUCUGCUGU [G19A A23U],0.154
4,GGGGGCCACAGCAGAAGCAUUCACGACGCGGCCCCUGUCAGAUUCUGGUGAAUCUGCGAAUUCUGCUGU [G19A U26A],0.19
5,GGGGGCCACAGCAGAAGCAUUCACGUCGCGGCCCCUGUCAGAUUCUGGUGAAUCUCCGAAUUCUGCUGU [G19A G56C],0.0715
6,GGGGGCCACAGCAGAAGCAUUCACGUCGCGGCCCCUGUCAGAUUCUGGUGAAUCUACGAAUUCUGCUGU [G19A G56A],0.104
7,GGGGGCCACAGCAGAAGCAUUCACGUCGCGUCCCCUGUCAGAUUCUGGUGAAUCUGCGAAUUCUGCUGU [G19A G31U],0.146
8,GGGGGCCACAGCAGAAGCAUUCACGUCGCGCCCCCUGUCAGAUUCUGGUGAAUCUGCGAAUUCUGCUGU [G19A G31C],0.143
9,GGGGGCCACAGCAGAAGCAUUCACGUCGCAGCCCCUGUCAGAUUCUGGUGAAUCUGCGAAUUCUGCUGU [G19A G30A],0.144
10,GGGGGCCACAGCAGAAGCAUUCACGUCGCCGCCCCUGUCAGAUUCUGGUGAAUCUGCGAAUUCUGCUGU [G19A G30C],0.166
11,GGGGGCCACAGCAGAAGCAUUCACGUCGCUGCCCCUGUCAGAUUCUGGUGAAUCUGCGAAUUCUGCUGU [G19A G30U],0.147
12,GGGGGCCACAGCAGAAGCAUUUACGUCGCGGCCCCUGUCAGAUUCUGGUGAAUCUGCGAAUUCUGCUGU [G19A C22U],0.196
13,GGGGGCCACAGCAGAAGCAUUGACGUCGCGGCCCCUGUCAGAUUCUGGUGAAUCUGCGAAUUCUGCUGU [G19A C22G],0.148
14,GGGGGCCACAGCAGAAGCAUUCACGUCGCGGCCCCUGUCAGAUUCUGGUGAGUCUGCGAAUUCUGCUGU [G19A A52G],0.204
15,GGGGGCCACAGCAGAAGCAUUCACGUCGCGGCCCCUGUCAGAUUCUGGUGACUCUGCGAAUUCUGCUGU [G19A A52C],0.183
16,GGGGGCCACAGCAGAAGCAUUCACGUCGCGGCCCCUGUCAGAUUCUGGUGAUUCUGCGAAUUCUGCUGU [G19A A52U],0.156
17,GGGGGCCACAGCAGAAGCAUUCACGUCGCGGCCUCUGUCAGAUUCUGGUGAAUCUGCGAAUUCUGCUGU [G19A C34U],0.181
18,GGGGGCCACAGCAGAAGCAUUCACGUCGCGGCCACUGUCAGAUUCUGGUGAAUCUGCGAAUUCUGCUGU [G19A C34A],0.201
19,GGGGGCCACAGCAGAAGCAUUCACGUCGCGGCCCCAGUCAGAUUCUGGUGAAUCUGCGAAUUCUGCUGU [G19A U36A],0.0999
20,GGGGGCCACAGCAGAAGCAUUCACGUCGCGGCCCCGGUCAGAUUCUGGUGAAUCUGCGAAUUCUGCUGU [G19A U36G],0.165
21,GGGGGCCACAGCAGAAGCAUUCACGUCGCGGCCCCUGUCAGAUUCUGAUGAAUCUGCGAAUUCUGCUGU [G19A G48A],0.144
22,GGGGGCCACAGCAGAAGCAUUCACGUCGCGGCCCCUGUCAGAUUCUGUUGAAUCUGCGAAUUCUGCUGU [G19A G48U],0.227
23,GGGGGCCACAGCAGAAGCAUUCACGUCGCGGCCCCUGUCAGAUUCUGGUGAAUCUGCGAAUUCUUCUGU [G19A G65U],0.159
24,GGGGGCCACAGCAGAAGCAUUCACGUCGCGGCCCCUGUCAGAUUCUGGUGAAUCUGCGAAUUCUACUGU [G19A G65A],0.0987
25,GGGGGCCACAGCAGAAGCAUUCACGUCGCGGCCCCUGUCAGAUUCUGGUGAAUCUGCGAAUUCUCCUGU [G19A G65C],0.127
26,GGGGGCCACAGCAGAAGCAUUCACGUCGCGGACCCUGUCAGAUUCUGGUGAAUCUGCGAAUUCUGCUGU [G19A C32A],0.174
